Test results published in article PMC12355757, “TRIM6 ablation reverses ICB resistance in MSS gastric cancer by unleashing cGAS-STING-dependent antitumor immunity” (Journal of Experimental & Clinical Cancer Research : CR, 2025).

Biological target: T1, Recombinant His-cGAS (human, UniProt Q8N884 1-522)
T1 construct: cGAS cloned into the pET28a plasmid for the GST pull-down; also called purified His-cGAS
Experiment: pull-down; purified His-cGAS incubated with GST, GST-TRIM6 or its truncated mutants on GST-tag resin overnight at 4 °C; 50 mM Tris pH 8.0, 200 mM NaCl, 1 mM EDTA, 1% NP-40, 1 mM DTT, 1 mM MgCl2; immunoblot with anti-His or anti-cGAS
Conditions: both partners purified

T1 sequence (Q8N884 whole entry): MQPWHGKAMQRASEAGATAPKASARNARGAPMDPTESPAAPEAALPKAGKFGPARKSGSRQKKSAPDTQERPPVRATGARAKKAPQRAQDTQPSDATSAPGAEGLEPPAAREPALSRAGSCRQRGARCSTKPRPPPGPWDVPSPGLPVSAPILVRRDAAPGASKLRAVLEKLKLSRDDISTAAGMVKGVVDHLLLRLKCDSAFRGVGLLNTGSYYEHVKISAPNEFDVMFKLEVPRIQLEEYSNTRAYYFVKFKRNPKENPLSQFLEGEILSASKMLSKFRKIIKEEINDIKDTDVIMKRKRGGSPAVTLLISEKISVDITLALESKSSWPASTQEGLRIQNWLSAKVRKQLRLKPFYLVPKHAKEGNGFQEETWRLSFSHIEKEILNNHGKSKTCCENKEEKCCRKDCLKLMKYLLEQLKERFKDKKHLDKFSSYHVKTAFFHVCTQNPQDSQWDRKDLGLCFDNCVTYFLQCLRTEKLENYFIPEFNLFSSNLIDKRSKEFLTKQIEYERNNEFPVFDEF

binding result: binds
B1: GST-TRIM6 (full length) (enzyme, human, UniProt Q9C030-2 1-516, looked up)
chain: MCGSERILQAGNILEIRVGQAGARRVATMTSPVLVDIREEVTCPICLELLTEPLSIDCGHSFCQACITPNGRESVIGQEGERSCPVCQTSYQPGNLRPNRHLANIVRRLREVVLGPGKQLKAVLCADHGEKLQLFCQEDGKVICWLCERSQEHRGHHTFLVEEVAQEYQEKFQESLKKLKNEEQEAEKLTAFIREKKTSWKNQMEPERCRIQTEFNQLRNILDRVEQRELKKLEQEEKKGLRIIEEAENDLVHQTQSLRELISDLERRCQGSTMELLQDVSDVTERSEFWTLRKPEALPTKLRSMFRAPDLKRMLRVCRELTDVQSYWVDVTLNPHTANLNLVLAKNRRQVRFVGAKVSGPSCLEKHYDCSVLGSQHFSSGKHYWEVDVAKKTAWILGVCSNSLGPTFSFNHFAQNHSAYSRYQPQSGYWVIGLQHNHEYRAYEDSSPSLLLSMTVPPRRVGVFLDYEAGTVSFYNVTNHGFPIYTFSKYYFPTTLCPYFNPCNCVIPMTLRRPSS
notes: TRIM6, human, full-length, cloned into the pGEX-6T-1 vector; also called full-length TRIM6
